Literature values as cited in publication PMC10947368.

What was measured:
IL-2Rα (Homo sapiens) = IL-2Rα (Homo sapiens) (UniProt P01589)
[1] = biological target: IL-2Rβ/γc heterodimeric receptor (Homo sapiens) (UniProt P14784)
Sequence of UniProt P14784 (P14784 27-240, chain 1 of 2): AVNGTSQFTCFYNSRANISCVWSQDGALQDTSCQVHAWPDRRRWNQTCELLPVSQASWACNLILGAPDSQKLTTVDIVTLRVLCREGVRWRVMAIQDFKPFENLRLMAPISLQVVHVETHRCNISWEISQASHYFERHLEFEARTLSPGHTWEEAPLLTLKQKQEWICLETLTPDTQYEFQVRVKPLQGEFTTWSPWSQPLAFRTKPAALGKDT
Sequence of UniProt P14784 (P31785 23-262, chain 2 of 2, further chain): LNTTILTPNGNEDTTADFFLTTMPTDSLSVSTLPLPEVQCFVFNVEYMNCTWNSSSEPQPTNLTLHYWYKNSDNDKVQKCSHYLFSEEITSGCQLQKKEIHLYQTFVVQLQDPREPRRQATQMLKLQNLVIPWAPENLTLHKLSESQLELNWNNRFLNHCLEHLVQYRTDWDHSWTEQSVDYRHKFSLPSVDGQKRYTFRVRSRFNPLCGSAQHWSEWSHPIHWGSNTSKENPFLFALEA

Sequence of UniProt P01589 (P01589 22-240): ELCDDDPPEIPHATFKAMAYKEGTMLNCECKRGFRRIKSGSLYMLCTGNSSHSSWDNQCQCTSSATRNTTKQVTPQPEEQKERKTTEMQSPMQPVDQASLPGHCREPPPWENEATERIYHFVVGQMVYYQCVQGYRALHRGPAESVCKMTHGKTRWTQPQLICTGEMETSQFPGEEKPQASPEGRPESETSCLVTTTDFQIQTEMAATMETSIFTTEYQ

Kd (IL-2Rα (Homo sapiens)): 10 nM | Kd [1]: 1 nM
Substance: Interleukin-2 (from UniProt P60568)
